T1: PUF4 RNA-binding domain (Saccharomyces cerevisiae, UniProt P25339 537-888)
T1 sequence: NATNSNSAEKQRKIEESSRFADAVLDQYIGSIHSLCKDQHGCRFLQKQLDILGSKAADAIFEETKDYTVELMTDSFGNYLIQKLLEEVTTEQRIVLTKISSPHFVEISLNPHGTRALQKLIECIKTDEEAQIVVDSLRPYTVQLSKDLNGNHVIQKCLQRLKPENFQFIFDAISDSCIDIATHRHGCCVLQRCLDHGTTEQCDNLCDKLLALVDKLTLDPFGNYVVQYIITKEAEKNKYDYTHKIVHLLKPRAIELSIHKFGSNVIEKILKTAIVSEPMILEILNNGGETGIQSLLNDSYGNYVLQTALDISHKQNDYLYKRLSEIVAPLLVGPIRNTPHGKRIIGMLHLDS


Target: T1, PUF4 RNA-binding domain
Experiment: Mg; RNA-MaP; 20 mM Na-HEPES pH 7.4, 30 mM KOAc, 0.75 mM MgCl2, 0.1% Tween-20, 5% glycerol, 0.1 mg/mL BSA, 2 mM DTT; 25 C; 0.0125-409.6 nM protein
Conditions: tags: N-His6-TEV cleaved; C-SNAP kept, Cy3B-labelled; label: tethered on chip by stalled RNA polymerase

Binder | Kd [nM]
UCUCUUCUUGUAUAUUUCAUAUCUCUU (ssRNA) [Ie_S1_P3E.2_K3.1_C3.2_H3.1_A3.1_F3.1_[+7TTC]_T3.2] | 6.46
UCUCUUCUUGUACCCUUUAUAUAUCUCUU (ssRNA) [Ie_S1_P3E.2_K3.1_C3.2_H3.1_[+4CCCTT]_A3.1_F3.1_T3.2] | 20.6
UCUCUUCUUGUAUAUACCUUAUCUCUU (ssRNA) [Ie_S1_P3E.2_K3.1_C3.2_H3.1_A3.1_F3.1_[+8CCT]_T3.2] | 8.91
UCUCUUCUUGUAUAUACUUAUCUCUU (ssRNA) [Ie_S1_P3E.2_K3.1_C3.2_H3.1_A3.1_F3.1_[+8CT]_T3.2] | 9.04
UCUCUUCUUGUAUAUACCCUUUAUCUCUU (ssRNA) [Ie_S1_P3E.2_K3.1_C3.2_H3.1_A3.1_F3.1_[+8CCCTT]_T3.2] | 9.52
UCUCUUUGUAUAGUUAUCUCUU (ssRNA) [Ib_S1_P5E.1_K5.1_C5.1_H5.1_A5.1_[T6A]_[A7G]_F5.1_T5.1] | 7.36
UCUCUUCUUGUAUAUAUUCUAUCUCUU (ssRNA) [Ie_S1_P3E.2_K3.1_C3.2_H3.1_A3.1_F3.1_[+8TTC]_T3.2] | 4.4
UCUCUUCUUGUAUAUACCCUUAUCUCUU (ssRNA) [Ie_S1_P3E.2_K3.1_C3.2_H3.1_A3.1_F3.1_[+8CCCT]_T3.2] | 12.3
UCUCUUCUUGUAUAUACUCUAUCUCUU (ssRNA) [Ie_S1_P3E.2_K3.1_C3.2_H3.1_A3.1_F3.1_[+8CTC]_T3.2] | 11.7
UCUCUUCUUGUAUAUCCCAUAUCUCUU (ssRNA) [Ie_S1_P3E.2_K3.1_C3.2_H3.1_A3.1_F3.1_[+7CCC]_T3.2] | 37.9
UCUCUUCUUGUACCUCUAUAUAUCUCUU (ssRNA) [Ie_S1_P3E.2_K3.1_C3.2_H3.1_[+4CCTC]_A3.1_F3.1_T3.2] | 12.4
UCUCUUCUUGUACUCUAUAUAUCUCUU (ssRNA) [Ie_S1_P3E.2_K3.1_C3.2_H3.1_[+4CTC]_A3.1_F3.1_T3.2] | 3.95
UCUCUUCUUGUAUAUAUCUCUAUCUCUU (ssRNA) [Ie_S1_P3E.2_K3.1_C3.2_H3.1_A3.1_F3.1_[+8TCTC]_T3.2] | 5.63
UCUCUUCUUGUAUACUAUAUCUCUU (ssRNA) [Ie_S1_P3E.2_K3.1_C3.2_H3.1_A3.1_[+6C]_F3.1_T3.2] | 0.878
UCUCUUCUUGUAUAUUCAUAUCUCUU (ssRNA) [Ie_S1_P3E.2_K3.1_C3.2_H3.1_A3.1_F3.1_[+7TC]_T3.2] | 10.3
UCUCUUUGUAUGCUUAUCUCUU (ssRNA) [Ic_S1_P5E.1_K5.1_C5.1_H5.1_A5.1_[T6G]_[A7C]_F5.1_T5.1] | 32
UCUCUUCUUGUAUCCAUAUAUCUCUU (ssRNA) [Ie_S1_P3E.2_K3.1_C3.2_H3.1_A3.1_[+5CC]_F3.1_T3.2] | 29.9
UCUCUUCUUGUAUCAUAUAUCUCUU (ssRNA) [Ie_S1_P3E.2_K3.1_C3.2_H3.1_A3.1_[+5C]_F3.1_T3.2] | 1.6
Ic_S2_P3E.1_K3.1_C3.1_H3.1_A3.1_F3.1_[A8T]_T3.1 (ssRNA) RNA: UUUGAUUAAUAUGAUAUCGUUCUUUCUUGUAUAUUUUCUUUCUCGAUAUCAUAUUAAUCUUU | 1.67

Binder | Kd [nM]
UCUCUUUCCUGUAUAUUAUCUCUU (ssRNA) [Ie_S1_P4E.1_K4.1_C4.1_H4.1_[+1CCT]_A4.1_F4.1_T4.1] | 0.583
UCUCUUUCCCGUAUAUUAUCUCUU (ssRNA) [Ie_S1_P4E.1_K4.1_C4.1_H4.1_[+1CCC]_A4.1_F4.1_T4.1] | 22.1
UCUCUUCUUGUAUAUCUCUCAUAUCUCUU (ssRNA) [Ie_S1_P3E.2_K3.1_C3.2_H3.1_A3.1_F3.1_[+7CTCTC]_T3.2] | 28.5
UCUCUUCUUGUUCCAUAUAUAUCUCUU (ssRNA) [Ie_S1_P3E.2_K3.1_C3.2_H3.1_[+3TCC]_A3.1_F3.1_T3.2] | 26.1
UCUCUUCUUGUAUAUACUAUCUCUU (ssRNA) [Ie_S1_P3E.2_K3.1_C3.2_H3.1_A3.1_F3.1_[+8C]_T3.2] | 8.83
UCUCUUCUUGUAUAUAUUUUAUCUCUU (ssRNA) [Ie_S1_P3E.2_K3.1_C3.2_H3.1_A3.1_F3.1_[+8TTT]_T3.2] | 6.71
UCUCUUCUUGUAUAUAUUAUCUCUU (ssRNA) [Ie_S1_P3E.2_K3.1_C3.2_H3.1_A3.1_F3.1_[+8T]_T3.2] | 5.64
UCUCUUCUUGUAUAUAUUCCUUAUCUCUU (ssRNA) [Ie_S1_P3E.2_K3.1_C3.2_H3.1_A3.1_F3.1_[+8TTCCT]_T3.2] | 6.43
UCUCUUUUUGUAUAUUAUCUCUU (ssRNA) [Ie_S1_P4E.1_K4.1_C4.1_H4.1_[+1TT]_A4.1_F4.1_T4.1] | 0.914
UCUCUUCUUGUACUAUAUAUCUCUU (ssRNA) [Ie_S1_P3E.2_K3.1_C3.2_H3.1_[+4C]_A3.1_F3.1_T3.2] | 1.5
UCUCUUCUUGUACUCUCUAUAUAUCUCUU (ssRNA) [Ie_S1_P3E.2_K3.1_C3.2_H3.1_[+4CTCTC]_A3.1_F3.1_T3.2] | 31
UCUCUUCUUGUCCCUAUAUAUAUCUCUU (ssRNA) [Ie_S1_P3E.2_K3.1_C3.2_H3.1_[+3CCCT]_A3.1_F3.1_T3.2] | 454
UCUCUUCUUGUAUAUAUCCUAUCUCUU (ssRNA) [Ie_S1_P3E.2_K3.1_C3.2_H3.1_A3.1_F3.1_[+8TCC]_T3.2] | 10.2
UCUCUUCUUGUAUAUAUCUAUCUCUU (ssRNA) [Ie_S1_P3E.2_K3.1_C3.2_H3.1_A3.1_F3.1_[+8TC]_T3.2] | 9.28
UCUCUUCUUGUAUAUACUCUCUAUCUCUU (ssRNA) [Ie_S1_P3E.2_K3.1_C3.2_H3.1_A3.1_F3.1_[+8CTCTC]_T3.2] | 11.7
UCUCUUCUUGUUCUCUAUAUAUAUCUCUU (ssRNA) [Ie_S1_P3E.2_K3.1_C3.2_H3.1_[+3TCTCT]_A3.1_F3.1_T3.2] | 68.4
UCUCUUUGUAUCUUUAUCUCUU (ssRNA) [Ib_S1_P5E.1_K5.1_C5.1_H5.1_A5.1_[T6C]_[A7T]_F5.1_T5.1] | 6.01
UCUCUUUGUAUCGUUAUCUCUU (ssRNA) [Ib_S1_P5E.1_K5.1_C5.1_H5.1_A5.1_[T6C]_[A7G]_F5.1_T5.1] | 14.4
UCUCUUUCUGUAUAUUAUCUCUU (ssRNA) [Ie_S1_P4E.1_K4.1_C4.1_H4.1_[+1CT]_A4.1_F4.1_T4.1] | 0.72

Binder | Kd [nM]
UCUCUUCUUGUUCAUAUAUAUCUCUU (ssRNA) [Ie_S1_P3E.2_K3.1_C3.2_H3.1_[+3TC]_A3.1_F3.1_T3.2] | 98.7
UCUCUUCUUGUAUAUAUCUCUUAUCUCUU (ssRNA) [Ie_S1_P3E.2_K3.1_C3.2_H3.1_A3.1_F3.1_[+8TCTCT]_T3.2] | 8.49
UCUCUUCUUGUAUUAUAUAUCUCUU (ssRNA) [Ie_S1_P3E.2_K3.1_C3.2_H3.1_A3.1_[+5T]_F3.1_T3.2] | 2.15
UCUCUUUUGUAUAUUAUCUCUU (ssRNA) [Ie_S1_P4E.1_K4.1_C4.1_H4.1_[+1T]_A4.1_F4.1_T4.1] | 0.567
UCUCUUCUUGUCCUCUAUAUAUAUCUCUU (ssRNA) [Ie_S1_P3E.2_K3.1_C3.2_H3.1_[+3CCTCT]_A3.1_F3.1_T3.2] | 139
UCUCUUCUUGUACUUAUAUAUCUCUU (ssRNA) [Ie_S1_P3E.2_K3.1_C3.2_H3.1_[+4CT]_A3.1_F3.1_T3.2] | 6.52
UCUCUUCUUGUAUAUAUUCCUAUCUCUU (ssRNA) [Ie_S1_P3E.2_K3.1_C3.2_H3.1_A3.1_F3.1_[+8TTCC]_T3.2] | 6.86
UCUCUUCUUGUCCCAUAUAUAUCUCUU (ssRNA) [Ie_S1_P3E.2_K3.1_C3.2_H3.1_[+3CCC]_A3.1_F3.1_T3.2] | 64.7
UCUCUUCUUGUAUAUCUCAUAUCUCUU (ssRNA) [Ie_S1_P3E.2_K3.1_C3.2_H3.1_A3.1_F3.1_[+7CTC]_T3.2] | 24.7
UCUCUUCUUGUUUCCAUAUAUAUCUCUU (ssRNA) [Ie_S1_P3E.2_K3.1_C3.2_H3.1_[+3TTCC]_A3.1_F3.1_T3.2] | 69.3
UCUCUUUGUAUCCUUAUCUCUU (ssRNA) [Ib_S1_P5E.1_K5.1_C5.1_H5.1_A5.1_[T6C]_[A7C]_F5.1_T5.1] | 9.16
UCUCUUCUUGUACCUAUAUAUCUCUU (ssRNA) [Ie_S1_P3E.2_K3.1_C3.2_H3.1_[+4CC]_A3.1_F3.1_T3.2] | 17.6
UCUCUUCUUGUAUAUUCCAUAUCUCUU (ssRNA) [Ie_S1_P3E.2_K3.1_C3.2_H3.1_A3.1_F3.1_[+7TCC]_T3.2] | 9.71
UCUCUUUUCGUAUAUUAUCUCUU (ssRNA) [Ie_S1_P4E.1_K4.1_C4.1_H4.1_[+1TC]_A4.1_F4.1_T4.1] | 24.4
UCUCUUCUUGUCCUCAUAUAUAUCUCUU (ssRNA) [Ie_S1_P3E.2_K3.1_C3.2_H3.1_[+3CCTC]_A3.1_F3.1_T3.2] | 798
UCUCUUCUUGUACCCUAUAUAUCUCUU (ssRNA) [Ie_S1_P3E.2_K3.1_C3.2_H3.1_[+4CCC]_A3.1_F3.1_T3.2] | 8.38
UCUCUUCUUGUUUCCUAUAUAUAUCUCUU (ssRNA) [Ie_S1_P3E.2_K3.1_C3.2_H3.1_[+3TTCCT]_A3.1_F3.1_T3.2] | 106
UCUCUUCUUGUACUCUUAUAUAUCUCUU (ssRNA) [Ie_S1_P3E.2_K3.1_C3.2_H3.1_[+4CTCT]_A3.1_F3.1_T3.2] | 9.53

— article PMC9352680, “A comprehensive thermodynamic model for RNA binding by the Saccharomyces cerevisiae Pumilio protein PUF4”
